Experimental data: patent US20230203185A1 (ECO ANIMAL HEALTH, published 2023)

Assays:
[1] = target: T1, pCD163-SRCR4-7-huFc (porcine, UniProt Q2VL90 372-818, limits assumed); experiment: SPR (Biacore 3000), antigen amine-coupled on CM5, VHH injected, pH 7.4
T1 construct: also called pCD163:SRCR4-7-Fc; pCD163-SRCR4-7-Fc; not shown: human Fc (huFc)
Description: To assess the affinity of selected purified clones to pCD163, pCD163-SRCR1-9-huFc or pCD163-SRCR4-7-huFc proteins were coated by amine coupling on a CM5 sensor ship (GE Healthcare). Surface plasmon resonance (SPR) (Biacore 3000, GE Healthcare) was used to determine the binding kinetics of selected single domain antibodies at pH7.4. Approximately 2000 RU of pCD163-SRCR1-9-huFc or pCD163-SRCR4-7-huFc, proteins at 20 or 30 µg/ml in Acetate buffer pH 5.0 or pH 5.5 were immobilized onto a CM5 chip using the standard amine coupling procedure.
1x HBS-EP pH 7.4, were utilized as a running buffer during binding kinetic measurements. Purified VHH were injected at 3-fold dilution (300 nM; 100 nM; 33 nM; 11 nM; 3.7 nM; 1.2 nM; 0.4 nM; 0 nM), for 120 s, at a flow rate of 30 µl/min. RU levels were restored to base levels after regeneration with 10 µl of 10 mM NaOH / 1 M NaCl and 10 µl of 10 mM Glycine pH 1.5 between samples. Fitting 1:1 binding with mass transfer was applied to the set sample curves using the simultaneous fitting option of the BIAevaluation software to calculate the kinetic constants of the antibody-antigen interactions including association rate (ka), dissociation rate (kd) and affinity (KD). Curves were removed from the fitting after visual examination of the residuals and considering the value of Chi2: a minimum of 4 curves were considered for the simultaneous fitting.

[2] = target: T2, pCD163-SRCR1-9-huFc (porcine, UniProt Q2VL90 47-1028, limits assumed); experiment: ELISA, periplasmic extract on coated antigen
T2 construct: also called pCD163:SRCR1-9-Fc; pCD163SRCR1-9-Fc; not shown: human Fc (huFc)
T2 sequence: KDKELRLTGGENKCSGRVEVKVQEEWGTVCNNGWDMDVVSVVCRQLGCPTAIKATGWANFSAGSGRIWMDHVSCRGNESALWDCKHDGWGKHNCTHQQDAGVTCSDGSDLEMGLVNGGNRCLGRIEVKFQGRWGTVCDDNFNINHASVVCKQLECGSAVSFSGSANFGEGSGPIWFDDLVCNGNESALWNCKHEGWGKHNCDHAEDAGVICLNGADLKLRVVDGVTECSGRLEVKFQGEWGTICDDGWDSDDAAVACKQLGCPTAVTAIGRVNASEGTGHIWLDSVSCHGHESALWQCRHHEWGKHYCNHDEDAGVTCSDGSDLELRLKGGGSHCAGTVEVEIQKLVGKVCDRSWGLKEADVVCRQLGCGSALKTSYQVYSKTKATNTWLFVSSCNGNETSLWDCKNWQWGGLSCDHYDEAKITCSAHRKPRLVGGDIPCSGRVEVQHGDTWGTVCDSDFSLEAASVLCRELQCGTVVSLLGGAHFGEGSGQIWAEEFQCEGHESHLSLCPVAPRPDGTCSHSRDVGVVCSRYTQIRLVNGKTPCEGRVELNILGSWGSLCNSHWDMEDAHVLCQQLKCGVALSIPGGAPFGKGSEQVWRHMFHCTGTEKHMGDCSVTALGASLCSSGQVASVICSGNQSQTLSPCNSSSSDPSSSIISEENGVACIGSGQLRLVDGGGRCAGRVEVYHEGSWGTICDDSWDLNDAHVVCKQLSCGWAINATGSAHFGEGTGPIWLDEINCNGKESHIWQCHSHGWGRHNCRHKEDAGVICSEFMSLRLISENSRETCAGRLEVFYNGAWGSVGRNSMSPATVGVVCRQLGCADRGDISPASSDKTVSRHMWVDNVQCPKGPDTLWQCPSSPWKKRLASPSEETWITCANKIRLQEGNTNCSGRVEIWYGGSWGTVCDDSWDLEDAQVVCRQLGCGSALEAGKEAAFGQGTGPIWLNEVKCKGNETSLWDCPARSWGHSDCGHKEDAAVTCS

[3] = target: T1, pCD163-SRCR4-7-huFc; experiment: ELISA, periplasmic extract on coated antigen
[4] = target: T3, native membrane bound porcine CD163 on primary porcine alveolar macrophages (porcine, UniProt Q2VL90 47-1115); experiment: flow cytometry, PAM CD163-WT, RT
T3 construct: also called PAM CD163-WT; pPAM
T3 sequence: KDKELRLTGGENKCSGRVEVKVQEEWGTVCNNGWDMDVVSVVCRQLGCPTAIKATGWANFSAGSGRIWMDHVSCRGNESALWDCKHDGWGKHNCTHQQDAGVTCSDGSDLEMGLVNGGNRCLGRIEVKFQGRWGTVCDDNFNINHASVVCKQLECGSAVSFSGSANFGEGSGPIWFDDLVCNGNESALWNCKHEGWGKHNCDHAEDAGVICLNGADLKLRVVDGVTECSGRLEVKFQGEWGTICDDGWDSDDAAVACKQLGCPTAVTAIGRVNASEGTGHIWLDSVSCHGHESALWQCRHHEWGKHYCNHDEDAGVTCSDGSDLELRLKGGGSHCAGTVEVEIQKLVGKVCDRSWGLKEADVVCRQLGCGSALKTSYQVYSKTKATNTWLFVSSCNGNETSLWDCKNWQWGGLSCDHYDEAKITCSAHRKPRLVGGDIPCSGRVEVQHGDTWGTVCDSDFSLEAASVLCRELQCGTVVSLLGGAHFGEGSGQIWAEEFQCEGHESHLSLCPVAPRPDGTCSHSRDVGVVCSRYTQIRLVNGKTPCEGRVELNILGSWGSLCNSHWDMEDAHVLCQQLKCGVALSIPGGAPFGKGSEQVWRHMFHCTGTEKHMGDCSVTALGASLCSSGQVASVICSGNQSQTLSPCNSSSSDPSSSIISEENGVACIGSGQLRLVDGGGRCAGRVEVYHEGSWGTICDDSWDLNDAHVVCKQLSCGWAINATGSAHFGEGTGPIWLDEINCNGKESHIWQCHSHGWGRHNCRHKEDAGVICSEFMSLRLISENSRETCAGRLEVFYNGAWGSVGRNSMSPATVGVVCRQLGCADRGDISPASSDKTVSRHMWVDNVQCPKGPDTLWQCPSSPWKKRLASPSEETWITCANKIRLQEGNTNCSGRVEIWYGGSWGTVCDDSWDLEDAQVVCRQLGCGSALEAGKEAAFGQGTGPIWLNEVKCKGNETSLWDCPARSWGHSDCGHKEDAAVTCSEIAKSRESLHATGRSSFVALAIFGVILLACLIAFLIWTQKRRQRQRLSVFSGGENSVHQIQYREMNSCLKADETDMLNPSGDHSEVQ

Binder	Kd [1] [µM]	koff [1] [s⁻¹]	kon [1] [M⁻¹ s⁻¹]	O.D. 450 [2] [O.D. 450]	O.D. 450 [3] [O.D. 450]	% Binding [4] [%]	MFI [4] [MFI]
VHH 018 (3E01) (VHH, Llama single domain antibody; also called 49(#18); VHCDR3 49(#18); not shown: tags: c-myc tag in periplasmic extract (ELISA, FACS); FLAG and His tags in purified VHH (SPR, infection assays)) VHH: QVQLQESGGGLVQVGGSLRLSCVASGRAPSRYVMGWFRQAPGQEREFVAGIAWSGRAPYADSVKGRSTISRDNAKNTVYLQMNSLKPEDTGVYYCAGGEGAIRWTTLDAYDYWGQGTQVTVSS	0.042	0.0121	288000	1.03	0.938	1.74	903
VHH 020 (3H11) (VHH, Llama single domain antibody; also called 48(#20); VHCDR3 48(#20); not shown: tags: c-myc tag in periplasmic extract (ELISA, FACS); FLAG and His tags in purified VHH (SPR, infection assays)) VHH: QVQLQESGGGLVQVGGSLRLSCVASGRTPSRYVMGWFRQAPGQEREFVAGIAWSGRAPYADSVKGRFVISRDSAKNTVYLQMNSLKSEDTGVYYCAGGEGAILWTTPGAYNYWGQGTQVTVSS	0.0182	0.00843	462000	2.93	3.36	81.5	9120
VHH 019 (3E11) (VHH, Llama single domain antibody; also called 47(#19); VHCDR3 47(#19); not shown: tags: c-myc tag in periplasmic extract (ELISA, FACS); FLAG and His tags in purified VHH (SPR, infection assays)) VHH: QVQLQESGGGLVQVGSSLRLSCVTSGRTPSRYVMGWFRQAPGQEREFVAAISWSGRAPYADSVKGRFTISRDNAKNTVYLQMNSLKPEDTGVYYCAGGEGAIKWTTLDAYDYWGQGTQVTVSS	0.0211	0.0103	487000	2.48	2.43	59.5	3940
VHH 023 (4E10) (VHH, Llama single domain antibody; also called 70(#23); VHCDR3 70(#23); not shown: tags: c-myc tag in periplasmic extract (ELISA, FACS); FLAG and His tags in purified VHH (SPR, infection assays)) VHH: QVQLVESGGGLVQAGGSLRLSCVASSRTSSTYAMGWFRQGPGKERDFVAIISFGGTFYADSVKGRFTISRDNAKNTVYLQMNSLKPEDTAVYYCAAGRTLSKRADSYASWGQGTQVTVSS	0.00152	0.00755	4.96e+06	0.577	4.1	0.56	843
VHH 001 (1B02) (VHH, Llama single domain antibody; also called 144(#1); VHCDR3 144(#1); not shown: tags: c-myc tag in periplasmic extract (ELISA, FACS); FLAG and His tags in purified VHH (SPR, infection assays)) VHH: EVQLVESGGGLVQAGGSLSLSCAASGGTLAMYAMSWFRQAPGKDRKFVAAINTSGRYSRYADSVKGRFTISRDNAKNTATLQMNSLEPEDTAVYYCAATDKGNWALAMSYDYWGQGTQVTVSS	0.00926	0.0227	2.46e+06	0.109	0.416	0.69	722
VHH 015 (2G01) (VHH, Llama single domain antibody; also called 150(#15); VHCDR3 150(#15); not shown: tags: c-myc tag in periplasmic extract (ELISA, FACS); FLAG and His tags in purified VHH (SPR, infection assays)) VHH: QVQLVESGGGLVQAGDTLRLSCTASGRTFSSYSMGWFRQAPGKEREFVAAITWNGYITNYADSVKGRFTISRDNTKNTVFLQMNSLKPEETAVYYCAATTFSTTSPISRTYNYWGPGTQVTVSS	0.00801	0.00442	551000	1.18	4.37	20.4	1660
VHH 011 (2B06) (VHH, Llama single domain antibody; also called 57(#11); VHCDR3 57(#11); not shown: tags: c-myc tag in periplasmic extract (ELISA, FACS); FLAG and His tags in purified VHH (SPR, infection assays)) VHH: EVQLVESGGGLVQAGGSLRLSCAASGRTLSVYGTGWFRQAPGKEREFVAGISGTTGSTLYADSVKGRFTISRDNAKNTVYLQMNSLKSEDTALYYCAAGGRVYITTSSWAYWGQGTQVTVSS	0.0345	0.0151	437000	0.106	0.288	3.32	983
VHH 002 (1B04) (VHH, Llama single domain antibody; also called 76(#2); VHCDR3 76(#2); not shown: tags: c-myc tag in periplasmic extract (ELISA, FACS); FLAG and His tags in purified VHH (SPR, infection assays)) VHH: QVQLVESGGGLVQAGGSLRLSCAASGLTFVTYSMGWFRQAPGKEREFVAAHRWSGSAYYAEHADSVEGRFTISRDYAKNMLYLQMNSLKHEDTAVYYCAAGVGSAAQYRYWGRGTQVTVSS	0.019	0.0149	787000	0.235	2.39	1.02	900
VHH 016 (2H11) (VHH, Llama single domain antibody; also called 77(#16); VHCDR3 77(#16); not shown: tags: c-myc tag in periplasmic extract (ELISA, FACS); FLAG and His tags in purified VHH (SPR, infection assays)) VHH: EVQLVESGGGLVQAGGSLRLSCAASGRTFAPGSMGWFRQAPGKEREFVAAHRWSGSAYYADYADSVEGRFTISRDYAKNMVYLQMNSLKPGDTAVYYCAAGVGSAAQYTYWGRGTQVTVSS	0.03	0.00674	224000	0.263	4.15	1.59	927
VHH 008 (1H01) (VHH, Llama single domain antibody; also called 78(#8); VHCDR3 78(#8); not shown: tags: c-myc tag in periplasmic extract (ELISA, FACS); FLAG and His tags in purified VHH (SPR, infection assays)) VHH: QVQLVESGGGLVQAGGSLRLSCAASGRTFGTYSMGWFRQAPGKEREFVAAHRWSGSAYYAEHADSVEGRFTISRDYAKNMLYLQMNSLKHEDTAVYYCAAGVGSEAQYRYWGRGTQVTVSS	0.0347	0.00542	156000	0.22	2.65	0.87	963
